In patent US20190062453A1 (Hoffmann-La Roche, published 2019):
Numbering of substitutions follows the chain as printed. Blank lines part the entries; values can stand above or below the binder they belong to.

Legend:
[1] = target: T1, human DR5 ECD-Avi-his (human, UniProt O14763 56-207); test: SPR (BIAcore 3000), antibody captured by anti-human Fc, monomeric DR5 injected
T1 construct: also called recombinant human DR5 (monomeric His-Avi fusion protein); monomeric human DR5

[2] = target: T2, human DR5 (recombinant, fusion format not stated for the assay) (human, UniProt O14763 56-207); test: binding to human DR5 after stress test, pH 6.0, 2 weeks 40° C., against non-stressed initial material (defined 100%)
T2 construct: all antigen constructs carry ECD aa 56-207; also called hu DR5; huDR5

[3] = target: T2, human DR5 (recombinant, fusion format …); test: binding to human DR5 after stress test, pH 7.4, 2 weeks 40° C., against non-stressed initial material (defined 100%)
[4] = target: T3, Human FAP ectodomain + poly-lys-tag + his6-tag (human, UniProt Q12884 27-760); test: SPR (Biacore), bispecific antibody bound to immobilised human DR5-Fc, recombinant human FAP as second analyte (simultaneous binding)
T3 construct: also called recombinant soluble human FAP; hFAP

[5] = target: T4, Murine FAP ectodomain + poly-lys-tag + his6-tag (murine, UniProt P97321 27-761); test: SPR (Biacore), bispecific antibody bound to immobilised human DR5-Fc, recombinant murine FAP as second analyte (simultaneous binding)
T4 construct: also called recombinant soluble murine FAP
T4 sequence (P97321 other isoform, or with tags, fused parts or gaps): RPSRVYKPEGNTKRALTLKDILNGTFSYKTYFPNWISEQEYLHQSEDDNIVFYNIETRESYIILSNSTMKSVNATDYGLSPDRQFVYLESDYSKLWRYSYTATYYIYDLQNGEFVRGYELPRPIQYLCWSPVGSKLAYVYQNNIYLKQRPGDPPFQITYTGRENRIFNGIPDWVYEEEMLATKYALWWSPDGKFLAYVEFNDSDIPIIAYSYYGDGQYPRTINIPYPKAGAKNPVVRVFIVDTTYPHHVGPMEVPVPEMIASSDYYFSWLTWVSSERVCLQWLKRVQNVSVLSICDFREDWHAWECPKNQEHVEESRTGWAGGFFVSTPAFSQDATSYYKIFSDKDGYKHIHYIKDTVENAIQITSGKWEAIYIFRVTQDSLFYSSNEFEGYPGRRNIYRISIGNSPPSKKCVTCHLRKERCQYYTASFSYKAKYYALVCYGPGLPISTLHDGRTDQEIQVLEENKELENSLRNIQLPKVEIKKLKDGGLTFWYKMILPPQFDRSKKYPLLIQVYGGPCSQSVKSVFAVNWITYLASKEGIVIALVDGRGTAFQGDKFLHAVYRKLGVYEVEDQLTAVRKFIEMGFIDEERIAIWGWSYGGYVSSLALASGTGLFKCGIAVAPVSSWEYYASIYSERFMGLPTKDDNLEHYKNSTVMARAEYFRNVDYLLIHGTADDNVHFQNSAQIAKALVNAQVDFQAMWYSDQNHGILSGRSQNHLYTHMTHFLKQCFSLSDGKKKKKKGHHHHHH

B1: DR5TAA-0052 (antibody, human IgG1, kappa, L234A L235A, V domains shown)
VH: QSVEESGGRLVTPGTPLTLTCTVSGFSISRYAMIWVRQAPGEGLEYIGFITSDSSAYYASWAKGRFTISKTSTTVDLKMTSPTTEDTATYFCARYTYSDGTDLWGPGTLVTVSS
VL: DIVMTQTPASVSEPVGGTVTIKCQASQSISTYLSWYQQKPGQPPKRLIYKASTLASGVPSRFKGSGSGTDFTLTIRDLESADAATYYCQPNSGIATYGAAFGGGTEVVVKR
notes: rabbit variable, human constant regions; also called chimeric form of DR5TAA-0011; chimeric variant
- Kd [1]: 0.007 µM
- koff [1]: 0.0024 s⁻¹
- kon [1]: 350000 M⁻¹ s⁻¹

B2: DR5TAA-0067 (antibody, human IgG1, kappa, L234A L235A, V domains shown)
VH: EVQLVETGGGLIQPGGSLRLSCAASGFTVSRYAMIWVRQAPGKGLEYIGFITSDGSTYYADSAKGRFTISRDNSKNTLYLQMNSLRAEDTAVYYCARYTYSDGTDLWGRGTLVTVSS
VL: DIQMTQSPSTLSASVGDRVTITCRASQSISTYLSWYQQKPGKAPKRLIYKASSLASGVPSRFSGSGSGTEFTLTISSLQPDDAATYYCQPNSGIATYGAAFGGGTKVEIKR
notes: humanized variant of DR5TAA-0011; also called VH7/VL15
- Relative active concentration as compared to the initial state [2]: 107%
- Kd [1]: 0.02 µM
- koff [1]: 0.0052 s⁻¹
- kon [1]: 260000 M⁻¹ s⁻¹
- Relative active concentration as compared to the initial state [3]: 107%

B3: DR5TAA-0074 (antibody, human IgG1, kappa, L234A L235A, V domains shown)
VH: B2 VH
VL: B2 VL with T10S, K42Q, A43P, S53T, E70D, D81E, A83F
notes: humanized variant of DR5TAA-0011; also called VH7/VL10
- Relative active concentration as compared to the initial state [2]: 103%
- Kd [1]: 0.021 µM
- koff [1]: 0.0056 s⁻¹
- kon [1]: 270000 M⁻¹ s⁻¹
- Relative active concentration as compared to the initial state [3]: 100%

B4: DR5TAA-0073 (antibody, human IgG1, kappa, L234A L235A, V domains shown)
VH: QVQLVESGGGLVQPGGSLRLSCSASGFSISRYAMIWVRQAPGKGLEYVGFITSDSSAYYASWAKGRFTISRDNSKNTLYLQMNSLRAEDTAVYYCARYTYSDGTDLWGQGTLVTVSS
VL: B2 VL with T10S, S53T, E70D, D81E
notes: humanized variant of DR5TAA-0011; also called VH17/VL3
- Relative active concentration as compared to the initial state [2]: 104%
- Relative active concentration as compared to the initial state [3]: 101%

B5: DR5TAA-0066 (antibody, human IgG1, kappa, L234A L235A, V domains shown)
VH: B2 VH
VL: B2 VL with T10S, S53T, E70D, D81E
notes: humanized variant of DR5TAA-0011; also called VH7/VL3
- Relative active concentration as compared to the initial state [2]: 102%
- Relative active concentration as compared to the initial state [3]: 100%

B6: DR5TAA-0071 (antibody, human IgG1, kappa, L234A L235A)
heavy: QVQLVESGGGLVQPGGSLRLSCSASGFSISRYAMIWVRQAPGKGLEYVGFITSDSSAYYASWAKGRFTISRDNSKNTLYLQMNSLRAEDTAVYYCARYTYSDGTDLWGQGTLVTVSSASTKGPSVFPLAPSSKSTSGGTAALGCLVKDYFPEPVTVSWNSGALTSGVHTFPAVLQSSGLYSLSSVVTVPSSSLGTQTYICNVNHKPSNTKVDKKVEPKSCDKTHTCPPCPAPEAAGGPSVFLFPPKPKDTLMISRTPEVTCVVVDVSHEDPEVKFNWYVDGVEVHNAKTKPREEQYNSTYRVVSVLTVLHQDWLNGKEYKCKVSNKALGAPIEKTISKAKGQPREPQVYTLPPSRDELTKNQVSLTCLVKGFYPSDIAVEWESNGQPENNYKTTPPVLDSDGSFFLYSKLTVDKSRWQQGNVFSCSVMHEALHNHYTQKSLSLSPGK
light: ADIQMTQSPSTLSASVGDRVTITCRASQSISTYLSWYQQKPGKAPKRLIYKASSLASGVPSRFSGSGSGTEFTLTISSLQPDDAATYYCQPNSGIATYGAAFGGGTKVEIKRTVAAPSVFIFPPSDEQLKSGTASVVCLLNNFYPREAKVQWKVDNALQSGNSQESVTEQDSKDSTYSLSSTLTLSKADYEKHKVYACEVTHQGLSSPVTKSFNRGEC
notes: humanized variant of DR5TAA-0011; also called VH17/VL15
- Relative active concentration as compared to the initial state [2]: 103%
- Kd [1]: 0.015 µM
- koff [1]: 0.0046 s⁻¹
- kon [1]: 300000 M⁻¹ s⁻¹
- Relative active concentration as compared to the initial state [3]: 98%

B7: DR5TAA-0075 (antibody, human IgG1, kappa, L234A L235A, V domains shown)
VH: B2 VH
VL: B2 VL with T10S, R24Q, K42Q, A43P, S53T, E70D, D81E, A83F
notes: humanized variant of DR5TAA-0011; also called VH7/VL11
- Relative active concentration as compared to the initial state [2]: 102%
- Kd [1]: 0.017 µM
- koff [1]: 0.0056 s⁻¹
- kon [1]: 320000 M⁻¹ s⁻¹
- Relative active concentration as compared to the initial state [3]: 99%

B8: DR5TAA-0068 (antibody, human IgG1, kappa, L234A L235A, V domains shown)
VH: B4 VH
VL: B2 VL with T10S, K42Q, A43P, S53T, E70D, D81E, A83F
notes: humanized variant of DR5TAA-0011; also called VH17/VL10
- Relative active concentration as compared to the initial state [2]: 103%
- Relative active concentration as compared to the initial state [3]: 101%

B9: DR5TAA-0072 (antibody, human IgG1, kappa, L234A L235A)
heavy: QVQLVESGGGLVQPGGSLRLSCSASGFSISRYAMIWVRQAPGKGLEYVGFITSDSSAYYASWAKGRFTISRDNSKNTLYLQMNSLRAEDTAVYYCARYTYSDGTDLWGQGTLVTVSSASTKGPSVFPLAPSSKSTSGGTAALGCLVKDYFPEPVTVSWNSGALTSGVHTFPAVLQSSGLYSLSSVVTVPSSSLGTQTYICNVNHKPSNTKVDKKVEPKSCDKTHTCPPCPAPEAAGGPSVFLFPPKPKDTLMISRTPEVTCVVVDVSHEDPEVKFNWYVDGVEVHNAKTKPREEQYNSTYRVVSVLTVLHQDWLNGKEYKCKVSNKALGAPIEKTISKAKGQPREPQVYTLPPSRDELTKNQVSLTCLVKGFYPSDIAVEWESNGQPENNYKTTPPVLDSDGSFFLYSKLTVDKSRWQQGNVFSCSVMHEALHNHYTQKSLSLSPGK
light: DIQMTQSPSTLSASVGDRVTITCRASQSISTYLSWYQQKPGKAPKRLIYKASSLASGVPSRFSGSGSGTEFTLTISSLQPDDAATYYCQPNSGIATYGAAFGGGTKVEIKRTVAAPSVFIFPPSDEQLKSGTASVVCLLNNFYPREAKVQWKVDNALQSGNSQESVTEQDSKDSTYSLSSTLTLSKADYEKHKVYACEVTHQGLSSPVTKSFNRGEC
notes: humanized variant of DR5TAA-0011; also called VH17/VL2
- Relative active concentration as compared to the initial state [2]: 105%
- Relative active concentration as compared to the initial state [3]: 101%

B10: 18F11_28H1 (bispecific antibody, human IgG1, kappa)
VH (DR5)-Fc part-VH (FAP)-CL chain: not shown
VL (DR5)-kappa light chain: EIVLTQSPGTLSLSPGERATLSCRASQSVSSSYLAWYQQKPGQAPRLLIYGASSRATGIPDRFSGSGSGTDFTLTISRLEPEDFAVYYCQQGQLPPITFGQGTKVEIKRTVAAPSVFIFPPSDEQLKSGTASVVCLLNNFYPREAKVQWKVDNALQSGNSQESVTEQDSKDSTYSLSSTLTLSKADYEKHKVYACEVTHQGLSSPVTKSFNRGEC
VLCH1 (FAP) chain: EIVLTQSPGTLSLSPGERATLSCRASQSVSRSYLAWYQQKPGQAPRLLIIGASTRATGIPDRFSGSGSGTDFTLTISRLEPEDFAVYYCQQGQVIPPTFGQGTKVEIKSSASTKGPSVFPLAPSSKSTSGGTAALGCLVKDYFPEPVTVSWNSGALTSGVHTFPAVLQSSGLYSLSSVVTVPSSSLGTQTYICNVNHKPSNTKVDKKVEPKSCD
notes: Printed as '18F11' on the sheet
- binding result [4]: binds
- binding result [5]: binds

Other lines, results leading:

- binding result [4]: binds
- binding result [5]: binds
B11: DR5TAA-0032 (bispecific antibody, human IgG1, kappa)
HC (DR5-crossed FAP): not shown
LC (DR5): AQVLTQTPSPVSAAVGGTVTINCQASQSVYNNRLAWYQQKPGQPPKLLIYLASTLASGVPSRFKGSGSGTQFTLTISDLQCDDAATYYCAGGYSGNINAFGGGTEVVVKRTVAAPSVFIFPPSDEQLKSGTASVVCLLNNFYPREAKVQWKVDNALQSGNSQESVTEQDSKDSTYSLSSTLTLSKADYEKHKVYACEVTHQGLSSPVTKSFNRGEC
Crossed LC (FAP): B10 VLCH1 (FAP) chain
notes: also called 039-28H1

- binding result [4]: binds
- binding result [5]: binds
B12: DR5TAA-0036 (bispecific antibody, human IgG1, kappa)
HC (DR5-crossed FAP): not shown
LC (DR5): ALVMTQTPSSVSAAVGGTVTINCQASQNIYSNLAWFQQKPGQPPKLLIYETSKLASGVPSRFSGSGSGTEFTLTISDLECDDAATYYCQSSWHSISTDCAFGGGTEVVVKRTVAAPSVFIFPPSDEQLKSGTASVVCLLNNFYPREAKVQWKVDNALQSGNSQESVTEQDSKDSTYSLSSTLTLSKADYEKHKVYACEVTHQGLSSPVTKSFNRGEC
Crossed LC (FAP): B10 VLCH1 (FAP) chain

- binding result [4]: binds
- binding result [5]: binds
B13: DR5TAA-0034 (bispecific antibody, human IgG1, kappa)
HC (DR5-crossed FAP): not shown
LC (DR5): ALVMTQTPSSTSEPVGGTVTIKCQASQSIGSSLSWYQQTPGQPPKLLIYTASSLASSVPKRFSGSRSGTQFTLTISGVQCADAATYYCLGIDDVRRDDGFAFGGGTEVVVKRTVAAPSVFIFPPSDEQLKSGTASVVCLLNNFYPREAKVQWKVDNALQSGNSQESVTEQDSKDSTYSLSSTLTLSKADYEKHKVYACEVTHQGLSSPVTKSFNRGEC
Crossed LC (FAP): B10 VLCH1 (FAP) chain
notes: also called 298-28H1

- binding result [4]: binds
- binding result [5]: binds
B14: DR5TAA-0039 (bispecific antibody, human IgG1, kappa)
VH (DR5)-Fc part-VH (FAP)-CL chain: not shown
VL (DR5)-kappa light chain: B10 VL (DR5)-kappa light chain with Q93E, L94S, I97P
VLCH1 (FAP) chain: B10 VLCH1 (FAP) chain
notes: also called DR5 (20F2)-28H1 VHCL 2 + 2

- binding result [4]: binds
- binding result [5]: binds
B15: DR5TAA-0038 (bispecific antibody, human IgG1, kappa)
VH (DR5)-Fc part-VH (FAP)-CL chain: not shown
VL (DR5)-kappa light chain: B10 VL (DR5)-kappa light chain with Q93S, L94Q
VLCH1 (FAP) chain: B10 VLCH1 (FAP) chain

- binding result [4]: binds
- binding result [5]: binds
B16: DR5TAA-0037 (bispecific antibody, human IgG1, kappa)
VH (DR5)-Fc part-VH (FAP)-CL chain: not shown
VL (DR5)-kappa light chain: B10 VL (DR5)-kappa light chain with Q93S, L94N, P95Q, I97V
VLCH1 (FAP) chain: B10 VLCH1 (FAP) chain
